This is an account of results in patent publication US20120141504A1 (MAYO FOUNDATION FOR MEDICAL EDUCATION AND RESEARCH, published 2012).

For the experiment, the target named is T1, human B7-H3.1 expressed on 293 cells transfected with pcDNA/B7-H3 (human, UniProt Q5ZPR3 29-534).
T1 sequence: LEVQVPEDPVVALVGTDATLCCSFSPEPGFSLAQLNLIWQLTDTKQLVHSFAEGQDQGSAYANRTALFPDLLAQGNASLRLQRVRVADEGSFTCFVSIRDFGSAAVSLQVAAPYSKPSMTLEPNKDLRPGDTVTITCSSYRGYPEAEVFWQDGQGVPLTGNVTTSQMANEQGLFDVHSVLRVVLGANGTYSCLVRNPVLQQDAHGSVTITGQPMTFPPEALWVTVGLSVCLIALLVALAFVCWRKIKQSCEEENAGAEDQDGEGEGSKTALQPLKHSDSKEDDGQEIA
Nature of the experiment: flow cytometry on transfected 293 cells. A general note: In flow cytometry, cells or beads pass a laser one at a time.

Method: After a 45 min incubation, cells were washed and cultured for 45 min with fluorescein isothiocyanate (FITC)-conjugated goat anti-mouse Ig F(ab′)₂ (BioSource, Camarillo, Calif.). For two color staining, cells were washed and further incubated with phycoerythrin (PE)-conjugated mAb specific for CD3, CD14, or CD19 (PharMingen, San Diego, Calif.). For the analysis of CD3+, CD19+, and CD 14+ cells, peripheral blood mononuclear cells (PBMC) (untreated or activated as described below) were stained with anti-B3-H7 antiserum (green fluorescence) and either anti-CD3, anti-CD19, or anti-CD14 monoclonal antibody (mAb) (orange fluorescence). The proportion of B7-H3 expressing cells (green fluorescence) within the CD3+, the CD19+, and the CD 14+ populations was assessed by gating the flow cytometer on the relevant populations (orange fluorescence). Expression of a B7-H3 counter-receptor was analyzed by incubation of cells with B7-H3Ig (5 μg/sample) with subsequent staining using FITC-conjugated goat anti-mouse Ig F(ab′)₂. Single or double stained cells were analyzed using the Becton Dickinson FACScan (Mountain View, Calif.).

B1: ICOSIg fusion protein (Fc fusion, UniProt Q9Y6W8 21-140, looked up)
chain: EINGSANYEMFIFHNGGVQILCKYPDIVQQFKMQLLKGGQILCDLTKTKGSGNTVSIKSLKFCHSQLSNNSVSFFLYNLDHSHANYYFCNLSIFDPPPFKVTLTGGYLHIYESQLCCQLK
notes: extracellular domain; Described as an analogous fusion protein prepared by a method similar to that for B7-H3Ig (extracellular domain fused to mouse IgG2a Fc); not shown: Fc constant region of mouse IgG2a
As for B1, the binding result is “no binding (tested: 5 µg/sample)”.
